Measured values reported in patent publication US20150018409A1, “CHIMERIC POLYPEPTIDES AND THEIR USE” (ADRIACELL S.P.A., priority 2003, published 2015).

How the values were obtained:
[1] = tested on: U2OS osteosarcoma cells and IMR90 primary fibroblasts; experiment: Protein transduction of the chimeric proteins (immunoblot and immunofluorescence with PvuII antibody); format: cell-based, human
Experimental: For a comparison aliquots of the supernatants of the cell culture taken before extract preparation were included in the analysis (upper panel, SUPERNATANT).
In addition DNA costaining was obtained with propidium J after RNAse A digest (red, upper panel).
The transduction capacity of the chimeric proteins was assayed in U2OS osteosarcoma cells and in the IMR90 primary fibroblasts cells. The cells were grown in DMEM containing 10% FCS and treated with the proteins of the invention in the same medium, in general in the presence of antibiotics. After 10 minutes of incubation of the cells with increasing quantities of the fusion protein […] (1, 10, 50, 100, 200 nM) and with the protein SCPVU (single chain PvuII without TAT) and SC34 as a control (prepared as described for […] except that the enzyme PvuII contains a mutant in position 34) cell extracts were prepared, separated on SDS-PAGE and assayed by immuno-blot analysis with a monospecific antibody to PvuII. Further, uptake was assayed after 30 min of incubation by immuno-fluorescence analysis using PvuII specific antibodies and nuclear costaining with propidium iodide.

[2] = tested on: DSBs in human or rodent cell lines (U2OS, HEK-293, MCF-7, HCT116, WI83, IMR90, MEF); experiment: TUNEL assay for DSB induction in vivo; format: cell-based
Experimental: […] was assayed with terminal deoxynucleotidyl transferase (TdT) dUTP-FITC, in a TUNEL reaction (In Situ Cell Death Detection Kit, Roche Diagnostic, Mannheim Germany) which marks DSBs in vivo. The assay was done after fixation of the cells in 4% paraformaldehyde in PBS, 0.1% Triton. After the TUNEL reaction the cells are counter-stained with propidium J. The use of derivatives impaired in the nuclease activity like the construct SC34 as a negative control, allows to estimate background activities. […] This aspect makes the system described in the invention by far more efficient as compared to endonucleases induced from transcriptional units or compared to any of the other type of protein transfection like electroporation, or precipitations with calcium phosphate or libid-derivatives i.e. lipofectin.

HCT116 (p53(+/+)) cells = experiment: Cell cycle arrest point: nuclear morphology and immunofluorescence of cyclin B1 and Cdc25C; format: cell-based, human
Experimental: Microscopic analysis of the HCT116 (p53(+/+)) cells not treated, or treated with […] (100 nM) for 30 hours, or with taxol (0.2 μg/ml). Immunofluorescence analysis was done with primary antibodies specific for cyclin B1 or specific for Cdc25C and coloured with secondary conjugates of FITC (green, cyclinB1) or TRITC (red, Cdc25C).
Moreover, the initiation of mitosis, i.e. induced with the microtuble blocking agents Nocodazol or Taxol, can be detected by the nuclear activity of the Cdc2 kinase and also by nuclear localisation of Cdc25C. These assays allow to dissect the exact point of cell cycle arrest after […] treatment and this further allows to detect disturbations in this phase of the cell cycle relative to a positive control. Similar experiments are well known in the art also for other phases of the cell cycle. The assay shown in FIG. 7A and the immunofluorescence analysis shown in FIG. 14 show examples for these types of experiments.
HCT116 (p53(+/+)) not treated, or treated for 30 hours with […] (100 nM), or with Taxol (0.2 μg/ml) were fixated with 3% PFA and treated with specific antibodies to cyclin B1 or for Cdc25C. The immunofluorescence was analysed with the microscope (see FIG. 14) with specific primary antibodies to cyclin B1 conjugated to FITC labelled secondary antibodies (green) or with specific primary antibodies to Cdc25C conjugated to TRITC labelled secondary antibodies (red).

U2OS cells = experiment: Histone H2AX Ser139 phosphorylation, single cell fluorescence microscopy; format: cell-based, human; details: 100 nM, 60 minutes
Experimental: U2OS cells were treated with [sequence] (100 nM, central column) for 60 minutes, in addition treatment was done with Wortmanin (50 μM, WM, right column), or with no agent as a control (left column). After treatment cells were stained with specific antibodies to H2AX-Ser-139 phosphorylated (red) or for Histone 2B (served as a control, green) and analysed on a single cell level by fluorescence microscopy.
As another example for a phosphorylation of a substrate of ATM in response to the object of the invention, histone H2AX Ser^139 phosphorylation was analysed. […] U2OS cells were treated for 60 minutes with [sequence], fixed and analysed for histone H2AX Ser^139 phosphorylation. Cells were analysed with a specific antiserum to phospho-Ser 139 on histone H2AX and analysed in the microscope on a single cell basis. As a control histone 2B was analysed.

XR-1 (XRCC4−/−) cells = details: single addition of SCPVUTAT
Experimental: (§1) Clonogenic assay of CHO cells that were mutated for proteins involved in the NHEJ repair-pathway treated with […]. The cell lines used are AA8 (parental line), V3 (DNA-PCCS^(−/−)), xrss5 (KU80^(−/−)) and XR-1 (XRCC4^(−/−)), HIS P1.13-11 (KU70^(−/−)) and the corresponding parental cell line CHO-K1. Various dilutions of the CHO cells containing the NHEJ mutations as indicated were treated for 24 hours with […] (25 nM, grey bars; 100 nM, black bars) or not treated (white bars); the cells were washed and then grown for 7-10 days, stained with GIEMSA and colonies were counted.
(§2) These cell lines were analysed in the nuclease activity assays with […] in vivo and compared to the parental cell lines as indicated. […] Seven to ten days after addition, cell growth was analysed by staining with GIEMSA-blue and quantification of diverse cell-concentrations. […] In analogy, cell growth was quantified after a single treatment with […] for 12 hours (10 nM, grey bars; 75 nM, black bars; not treated, white bars). […] The multiwell-microtiter-plates (for an example see FIG. 13A) were scanned using the VersaDOC® (BioRad) imaging system and growth was automatically quantified with the software package Quantify One® for the analysis of the microtiter-plates (microtiter-plates scanning software).

[3] = tested on: NHEJ mutated cell lines (V3, xrss5, XR-1, HIS P1.13-11); experiment: Colony formation assay of NHEJ mutated cell lines; format: cell-based, rodent
Experimental: as §1, §2

[4] = tested on: MO59J (DNA-PKcs−/−) glioblastoma cells compared to MO59K; experiment: Colony forming assay with automatic analysis (VersaDoc); format: cell-based, human; design: dose or concentration left out as unconfirmed; details: single treatment for 12 hours
Source text: Statistical analysis of the results was done and is represented as a histogram. […] An example of the colony forming assay is shown. The assay was done employing various concentrations of cells in the order of three magnitudes (from the upper to the lower rows, 1×10^4, 2×10^3, 4×10^2, 8×10). On the right B), the histograms of the results from the colony forming assay of the cell-lines MO59J compared to MO59K is shown. The assays were done as in FIG. 9 but analysed with the aid of the Versadoc 4 (BioRad) system. […]

B1: SCPVUTAT: single chain PvuII endonuclease (aa 1-157, GSGG linker, aa 2-157) fused to HIV Tat peptide and six histidine tag; SEQ ID NO:2 (protein, listed as Proteus vulgaris)
chain: MSHPDLNKLLELWPHIQEYQDLALKHGINDIFQDNGGKLLQVLLITGLTVLPGREGNDAVDNAGQEYELKSINIDLTKGFSTHHHMNPVIIAKYRQVPWIFAIYRGIAIEAIYRLEPKDLEFYYDKWERKWYSDGHKDINNPKIPVKYVMEHGTKIYGSGGSHPDLNKLLELWPHIQEYQDLALKHGINDIFQDNGGKLLQVLLITGLTVLPGREGNDAVDNAGQEYELKSINIDLTKGFSTHHHMNPVIIAKYRQVPWIFAIYRGIAIEAIYRLEPKDLEFYYDKWERKWYSDGHKDINNPKIPVKYVMEHGTKIYGSYGRKKRRQRRRGGSHHHHHH
import / enrichment in the cells ([1]; 1-200 nM SCPVUTAT, controls 200 nM, 10 min incubation, immunoblot with PvuII antibody): enriched in the cells and in particular in the nucleus | uptake, share of the cells analysed ([1]; protein added to culture medium (DMEM, 10% FCS), immunoblot after 10 min, immunofluorescence after 30 min): ~100% | TUNEL positive cells ([2]; 10 minutes after treatment, all cell types tested): 90-100% | TUNEL activity ([2]; few minutes of treatment, concentration in culture supernatant as low as 10 nM): significant TUNEL activity in most of the cells | cell cycle stop from localisation of Cdc25C and cyclin B (HCT116 (p53(+/+)) cells; 30 hours, SCPVUTAT 100 nM or Taxol 0.2 μg/ml): G2 phase stop | cell cycle block (HCT116 (p53(+/+)) cells; upon treatment with SCPVUTAT (100 nM)): reversible block in the phase of the cell cycle that corresponds to late S/G2 | histone H2AX Ser139 phosphorylation (U2OS cells): rapidly induces histone H2AX Ser^139 phosphorylation | sensitivity in clonogenic assay (XR-1 (XRCC4−/−) cells): hypersensitive to blunt end DSB's | colony formation, cells with mutants in the DNA-PK incl. catalytic subunit ([3]; single addition of SCPVUTAT): strong reduction in the colony formation assay | colony formation activity ([3]; single treatment, all NHEJ mutated cell lines analysed): strongly reduce colony formation activity | sensitivity in colony forming assay versus parental MO59K [4]: significant differential increase in sensibility
